No end group written: not given here.

The target in assay [1] is T1, recombinant human Met (rhMet), fused to the Fc domain of human IgG (human, UniProt P08581 25-932).
T1 construct: also called MET receptor; hepatocyte growth factor receptor; not shown: Fc domain of human IgG
As to the kind of experiment: phage display selection on rhMet-Fc, five rounds; phage ELISA on rhMet. The method, then: Peptides at 1×10¹¹ pfu/mL were incubated with 100 nM of recombinant human Met (rhMet), fused to the Fc domain of human IgG, for 1 hour at room temperature. […] Bound phage clones were eluted with a low-pH buffer (0.2 M glycine with 1 mg/mL BSA, pH 2.2), and elutants were amplified via infection of the host bacterium (E. coli ER2738).
1×10¹¹ pfu/mL were incubated with 100 nM of recombinant human Met (rhMet), fused to the Fc domain of human IgG, for 1 hour at room temperature. […] Bound phage clones were eluted with a low-pH buffer (0.2 M glycine with 1 mg/mL BSA, pH 2.2), and elutants were amplified via infection of the host bacterium (E. coli ER2738). […] Peptides specific for protein A and protein G were avoided by alternating rounds of selection between protein A-coated magnetic particles and protein G-coated magnetic particles. After five rounds of selection, DNA was recovered from 40 individual clones and sequenced using the −96 gIII primer provided with the Ph.D.™-7 kit.

The target in assay [2] is T2, ephrin B2 (EB2) on cells (human, UniProt P52799 28-333).
T2 construct: whole, on cells; The species is stated as human for the CHO-K1 transfectants; also called human ephrin B2
T2 sequence (P52799 28-333): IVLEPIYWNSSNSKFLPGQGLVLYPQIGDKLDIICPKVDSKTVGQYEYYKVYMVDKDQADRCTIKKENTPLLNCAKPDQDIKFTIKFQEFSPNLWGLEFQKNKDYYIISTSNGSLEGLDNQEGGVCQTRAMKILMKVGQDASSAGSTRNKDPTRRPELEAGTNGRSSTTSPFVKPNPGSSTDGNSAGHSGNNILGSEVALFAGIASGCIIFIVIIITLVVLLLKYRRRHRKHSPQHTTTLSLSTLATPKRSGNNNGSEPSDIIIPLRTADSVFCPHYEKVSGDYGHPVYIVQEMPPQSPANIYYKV
As to the kind of experiment: flow cytometry, EB2-positive HEK 293 against EB2-negative parental CHO-K1.

The target in assay [3] is Met (hepatocyte growth factor receptor) on Hep3B cells (human) (UniProt P08581). The assay can be described thus: flow cytometry saturation binding on cytochalasin D-treated Hep3B cells, 1 hour at 37 C; specific binding = total minus binding with saturating unlabeled HGF; apparent Kd of the multivalent particle.
Met (hepatocyte growth factor receptor) on Hep3B cells (human), sequence (P08581 25-1390): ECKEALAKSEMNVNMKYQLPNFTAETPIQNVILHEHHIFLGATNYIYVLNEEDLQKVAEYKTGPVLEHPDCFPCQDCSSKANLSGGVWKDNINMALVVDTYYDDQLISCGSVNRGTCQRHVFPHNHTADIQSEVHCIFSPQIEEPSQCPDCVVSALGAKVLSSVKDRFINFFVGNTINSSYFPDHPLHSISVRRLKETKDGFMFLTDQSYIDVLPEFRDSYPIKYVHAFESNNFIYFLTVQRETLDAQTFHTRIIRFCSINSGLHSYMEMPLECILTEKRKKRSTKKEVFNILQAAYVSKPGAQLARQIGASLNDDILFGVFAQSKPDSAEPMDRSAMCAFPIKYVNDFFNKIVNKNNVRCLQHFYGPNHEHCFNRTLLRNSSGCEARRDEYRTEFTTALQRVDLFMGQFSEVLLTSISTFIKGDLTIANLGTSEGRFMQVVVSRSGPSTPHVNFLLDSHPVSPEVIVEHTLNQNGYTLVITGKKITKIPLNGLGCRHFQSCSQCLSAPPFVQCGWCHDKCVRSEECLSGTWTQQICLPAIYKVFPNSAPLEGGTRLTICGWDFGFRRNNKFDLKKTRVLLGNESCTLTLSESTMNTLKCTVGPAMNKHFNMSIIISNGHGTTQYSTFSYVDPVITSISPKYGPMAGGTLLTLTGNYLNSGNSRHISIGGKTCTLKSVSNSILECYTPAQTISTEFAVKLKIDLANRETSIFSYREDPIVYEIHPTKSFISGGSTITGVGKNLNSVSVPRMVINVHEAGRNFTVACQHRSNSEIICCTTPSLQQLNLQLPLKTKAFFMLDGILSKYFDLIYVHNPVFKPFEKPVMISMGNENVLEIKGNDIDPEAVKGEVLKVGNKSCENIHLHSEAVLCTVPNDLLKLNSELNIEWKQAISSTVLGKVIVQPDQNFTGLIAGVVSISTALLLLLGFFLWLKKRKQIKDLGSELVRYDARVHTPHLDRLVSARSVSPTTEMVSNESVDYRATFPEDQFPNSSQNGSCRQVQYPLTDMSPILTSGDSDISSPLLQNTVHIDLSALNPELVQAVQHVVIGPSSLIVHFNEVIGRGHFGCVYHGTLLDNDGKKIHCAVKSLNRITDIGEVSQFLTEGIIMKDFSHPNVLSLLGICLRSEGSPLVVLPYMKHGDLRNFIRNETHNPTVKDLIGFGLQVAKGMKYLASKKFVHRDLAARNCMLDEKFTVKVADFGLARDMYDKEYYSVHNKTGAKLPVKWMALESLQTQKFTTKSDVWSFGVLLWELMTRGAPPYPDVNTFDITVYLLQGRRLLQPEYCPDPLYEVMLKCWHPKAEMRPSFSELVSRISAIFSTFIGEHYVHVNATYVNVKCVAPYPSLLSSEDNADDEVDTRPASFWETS
Assay [4] addresses T2, ephrin B2 (EB2) on cells. As to the kind of experiment: phage display selection on CHO-K1 cells expressing human EB2, with counter-selection on parental CHO-K1 and on CHO-K1 expressing ephrin B1.

T1 sequence (P08581 25-932 limits assumed): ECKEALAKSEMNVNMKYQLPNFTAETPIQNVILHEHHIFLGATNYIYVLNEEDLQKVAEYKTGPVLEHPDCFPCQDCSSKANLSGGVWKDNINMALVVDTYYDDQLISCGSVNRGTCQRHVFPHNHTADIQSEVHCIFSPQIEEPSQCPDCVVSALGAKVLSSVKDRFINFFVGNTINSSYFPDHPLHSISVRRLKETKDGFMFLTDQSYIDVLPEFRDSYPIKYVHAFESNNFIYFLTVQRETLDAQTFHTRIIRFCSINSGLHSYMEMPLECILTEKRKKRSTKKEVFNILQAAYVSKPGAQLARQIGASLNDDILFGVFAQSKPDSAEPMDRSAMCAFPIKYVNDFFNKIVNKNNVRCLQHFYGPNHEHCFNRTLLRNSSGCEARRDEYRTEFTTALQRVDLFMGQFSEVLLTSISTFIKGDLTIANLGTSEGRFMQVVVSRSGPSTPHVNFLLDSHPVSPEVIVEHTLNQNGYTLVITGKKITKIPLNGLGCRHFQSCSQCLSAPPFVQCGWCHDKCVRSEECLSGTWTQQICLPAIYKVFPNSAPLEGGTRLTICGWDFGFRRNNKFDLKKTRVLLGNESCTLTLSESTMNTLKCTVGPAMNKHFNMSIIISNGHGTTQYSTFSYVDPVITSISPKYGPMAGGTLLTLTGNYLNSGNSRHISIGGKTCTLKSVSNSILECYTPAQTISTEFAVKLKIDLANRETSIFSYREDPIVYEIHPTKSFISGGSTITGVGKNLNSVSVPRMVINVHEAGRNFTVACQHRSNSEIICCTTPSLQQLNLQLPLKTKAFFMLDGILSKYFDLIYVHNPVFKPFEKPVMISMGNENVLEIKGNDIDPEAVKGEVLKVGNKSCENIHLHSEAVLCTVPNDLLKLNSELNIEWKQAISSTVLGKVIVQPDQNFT

B1: MC40 targeting peptide ASVHFPP (SEQ ID NO: 1) (peptide)
peptide: ASVHFPP
notes: 7-mer selected from the Ph.D.-7 phage display library; also called MC40 clone
On to B1, for which the binding result in assay [1] is listed as “binds”.

B2: MET binding peptide WPRLTNM (SEQ ID NO: 5) (peptide)
peptide: WPRLTNM
notes: 7-mer from Ph.D.-7 phage display, tested as a phage clone
Regarding B2, the binding result in assay [1] is given as “binds”.

B3: MET binding peptide TATFWFQ (SEQ ID NO: 2) (peptide)
peptide: TATFWFQ
notes: as for B2
Consider B3, for which the binding result in assay [1] is “binds”.

B4: MET binding peptide TSPVALL (SEQ ID NO: 3) (peptide)
peptide: TSPVALL
notes: as for B2
On to B4, for which, in assay [1], the binding result is “binds”.

B5: TGAILHP-targeted MSN-SLBs, low peptide valency (0.015 wt % or ~5 peptides/particle) (other)
peptide: TGAILHP
modifications: not fully specified
notes: Multivalent display on mesoporous silica nanoparticle-supported lipid bilayers; also called MSN-SLBs modified with 0.015 wt % of TGAILHP and 10 wt % PEG-2000
Take B5: the “fold higher affinity for HEK 293 cells than for EB2-negative cells (parental CHO-K1)” value in assay [2] worked out at 1000 fold.

B6: MC40-targeted protocells (mesoporous silica nanoparticle-supported lipid bilayer modified with 0.015 wt %, ~6 peptides/particle, of the MC40 targeting peptide) (peptide, not shown: small tags and cut ends)
peptide: ASVHFPPC
modifications: also: C-terminal Cys conjugated via sulfhydryl-to-amine crosslinker to DOPE in the protocell lipid bilayer
B6: the Kd in assay [3] was determined as 1.05 nM.

B7: MET binding peptide IPLKVHP (SEQ ID NO: 4) (peptide)
peptide: IPLKVHP
notes: as for B2
For B7, the binding result in assay [1] is “binds”.

B8: TGAILHP peptide (SEQ ID NO: 18) (peptide)
peptide: TGAILHP
notes: 7-mer from phage display; It was selected on CHO-K1 cells expressing human ephrin B2, with counter-selection on parental CHO-K1 and on CHO-K1 expressing human ephrin B1; also called ephrin B2 targeting peptide
Turning to B8, in assay [4], the binding result is on record as “binds”.

The record behind these values is US20150272885A1 (STC UNM, published 2015).
